From article PMC5700378

Target: PrP^Sc enriched from elk brain infected with chronic wasting disease (elk) (UniProt P67986)
Assay: SPR

Chain of UniProt P67986 (P67986 25-233 limits assumed): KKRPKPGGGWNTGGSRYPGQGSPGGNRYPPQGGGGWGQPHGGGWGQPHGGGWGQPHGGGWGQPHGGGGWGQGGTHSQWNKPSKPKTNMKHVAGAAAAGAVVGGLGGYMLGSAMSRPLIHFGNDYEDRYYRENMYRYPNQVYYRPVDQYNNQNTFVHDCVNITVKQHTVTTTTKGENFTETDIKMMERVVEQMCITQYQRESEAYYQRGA

purified full-length CD21 (from UniProt P20023 21-1033) (receptor)
Kd: 16 nM
